T1: CDK4 (Mus musculus, UniProt P30285)
T1 sequence (P30285 1-303): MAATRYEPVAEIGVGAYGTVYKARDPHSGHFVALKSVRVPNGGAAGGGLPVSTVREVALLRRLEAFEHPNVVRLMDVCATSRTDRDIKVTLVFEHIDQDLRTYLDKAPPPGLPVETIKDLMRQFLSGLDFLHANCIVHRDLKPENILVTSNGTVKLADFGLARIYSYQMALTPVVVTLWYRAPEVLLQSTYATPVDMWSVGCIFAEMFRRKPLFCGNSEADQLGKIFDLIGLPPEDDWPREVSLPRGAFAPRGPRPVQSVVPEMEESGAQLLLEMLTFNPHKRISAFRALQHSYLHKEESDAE


What was measured:
CDK4 and cyclin D1 = target: T2, CDK4 and cyclin D1 (Mus musculus, UniProt P30285); experiment: In vitro CDK4 kinase assay on GST-RB, Western blot with phosphoserine 780/795 antibodies; format: biochemical; details: proteins added in two-fold increments from 75 ng to 300 ng; phosphoserine 780 antibody (identical with 795)
T2 construct: made in house; host or cells: Sf9 insect cells coinfected with baculovirus stocks (from C. J. Sherr)
Experimental: Active CDK4 was produced in Sf9 cells coinfected with baculovirus stocks encoding CDK4 and cyclin D1 (from C. J. Sherr).
The kinase assay was performed essentially as described by Kato, et al., Genes Dev, (1993), 7(3):331–42. The CDK4-specific kinase inhibitor p16 (from D. Beach, [as described in Serrano, et al., Nature, (1993), 366(6456): 704–7]) was used as a GST-p16 fusion added to the kinase reaction. The GST-RB fusion (767–928) was used as a kinase target as previously described Kato, et al., Genes Dev, (1993), 7(3):331–42.
To test for kinase inhibition, the various proteins and protein domains were added to the reaction in two-fold increments from 75 ng to 300 ng. […] For the GST constructs, total protein concentration was kept constant in the kinase reaction by adding GST protein. After the assay the total reaction was run on SDS PAGE gels and analyzed by Western blot analysis. Specific phosphorylation of RB was measured with rabbit polyclonal antibodies to RB phosphoserines 780 or 795 (New England Biolabs).

10T1/2 cells = experiment: BrdU incorporation growth arrest assay in transfected 10T1/2 cells; format: cell-based, mouse; details: for growth inhibitory activity (BrdU positive cells): 10T1/2 cells, 20% fetal calf serum, one hour BrdU pulse, domains with NLS in pCDNA3 or GST-pCEFL
Experimental: 10T1/2 cells in growth medium were cotransfected with plasmids expressing full-sized MyoD(CMD1) or the indicated domains, either as GST fusions in GST-pCEFL or as subclones in pCDNA3, along with a lacZ expression construct, pCH110, to mark transfected cells. The various domains were targeted to the nucleus with a nuclear tag in the absence of an existing NLS.
Cultures were maintained in 20% fetal calf serum. 72 hours after transfection cultures were refed with the same medium and 12 hours later they were given a one hour pulse with BrdU (10 μM) prior to fixation, as previously described by Crescenzi et al., PNAS USA 1990 87(21):8442–6; and Sorrentino et al., Nature, 1990 345(6278):813–5. Cells were then reacted with rabbit anti-BrdU antibody (Jackson labs) and Xgal.

C2C12 myoblasts = experiment: RB phosphorylation and growth inhibition in cotransfected C2C12 myoblasts; format: cell-based, mouse
Description: C2C12 myoblasts were cotransfected with a GST-pCEFL RB expression plasmid (RB aa 767–928) and pCDNA3 expression plasmids for full-sized or the C-terminus of MyoD(CMD1). GST-RB was recovered from the cells using methods known to those of skill in the art. The samples were adjusted for equal levels GST protein and loaded on SDS-PAGE gels for western analysis by phosphoserine 780 and 795-specific antibodies.

CDK4 [1] = target: T1, CDK4; experiment: GST fusion pull-down binding assay with CDK4 from Sf9 cell extracts, anti-CDK4 immunoblot; set-up: made in house; host or cells: Sf9 insect cells, baculovirus; details: GST fusion protein on glutathione agarose; CDK4 from baculovirus infected Sf9 cell extracts
Experimental: The Sf9 cell extract was incubated with agarasoe bound with either glutathione transferase (GST) alone, or GST fusion proteins encoding one of the four different vertebrate myogenic factors from chicken: CMD1 (MyoD), Ch-myogenin, Ch-myf5 an Ch-mrf4 using methods known to those of skill in the art. Any GST complexes formed were recovered on glutathione-Sepharose beads. The recovered GST complexes were then washed, heated in sample buffer and loaded on an SDS-PAGE gel.
The gel was then analyzed by immunoblot with anti-CDK4 affinity purified rabbit polyclonal antibody on HyBond ECL (Amersham). The anti-CKD4 antibody was diluted 1:2,000–5,000. The second antibody was HRP anti-rabbit and was diluted 1:10,000 (Pierce cat. no. 31460). The signal was detected using SuperSignal Ultra Reagent (Pierce cat. no. 34075).
Proteins were expressed in E. coli strain BL21 (DE3) and purified as described by Shirakata et al., Genes Dev. 1993 7(12A):2456–70. The MyoD-GST fusion proteins were bound to glutathione agaraose.
The binding experiments were performed with CDK4 produced in the baculovirus system (Kato et al., Genes Dev. 1993 7(3):331–42) essentially as described by Kaelin et al., Cell 1991 64(3):521–32.
Deletion mapping of the MyoD (CMD1) carboxy terminus narrowed the CDK4-binding region to a maximum of fifteen amino acids between residues 189–203, well outside the bHLH domain (FIG. 10b, lanes 4 and 5). To confirm that these fifteen amino acids bound CDK4, the fifteen amino acid peptide was joined to glutathione transferase and tested for its ability to bind the CDK4 from Sf9 cell extracts.

[2] = tested on: CDK4 target sites, serines 780 and 795 of RB; experiment: Phosphorylation of cotransfected GST-RB target in 10T1/2 cells, Western blot; format: cell-based, mouse; details: 48 hours after transfection, nuclear extracts
Experimental: The inhibitory activity of the fifteen amino acid CDK4 binding peptide on RB phosphorylation in cells was examined by fusing the fifteen amino acid CDK4-binding peptide of MyoD with a nuclear localization tag to the carboxy terminus of GFP and used in the same transfection protocol with GST-RB.
10T1/2 cells were cotransfected with a GST-RB target (amino acids 767–928) containing a nuclear localization tag, and either MyoD(CMD1) or the carboxy terminus of MyoD with an NLS.
48 hours after transfection, nuclear extracts of the 10T1/2 cells were prepared. The nuclear extracts were passed over glutathione agaraose to capture the GST-RB target.
Western blot analysis of the captured GST-RB target was performed with phosphoserine specific antibodies to the CDK4 target sites, serines 780 and 795. Gel loadings for the phosphoserine antibody analysis were adjusted to the same amount of GST-RB target protein by preliminary western analysis of the extracts (FIG. 13).

CDK4 [3] = target: T1, CDK4; experiment: Mammalian two-hybrid luciferase reporter assay with vp16-CDK4 in 10T1/2 fibroblasts; format: cell-based; details: average of three experiments
Description: The interaction between MyoD and CDK4 in vivo was examined using a mammalian version of the yeast two hybrid system described by Finkel et al., (1993) J Biol Chem 268, 5–8.
MyoD and myogenin (MGN) were each cloned into the gal4 DNA-binding domain vector, pM. CDK4 was inserted into the vp16 activation domain plasmid, pVP16 using methods known to those of skill in the art.
10T1/2 fibroblasts (3×10^5 cells per 60 mm dish or multiwell plate) grown in DMEM with either 10% fetal calf serum were co-transfected with either gal4-MyoD or gal4-MGN along with vp16-CDK4 and a luciferase reporter using Fugene-6 (Boehringer-Mannheim) according to the manufacturer's directions. 1 μg gal4 luciferase reporter, 2 μg each of the gal4 (pM vector, Clonetech) and vp16 (pvp16 vector, Clonetech) constructs, and 300 ng of the beta galactosidase reporter pCH110 (Pharmacia), a total of 5.3 μg DNA, were used in each transfection. The pSV2-beta galactosidase reporter was used to normalize transfection efficiencies.
After 24–36 hours, if required, cells were placed in 2% horse serum plus insulin (10 μg/ml) to induce differentiation and destabilize cyclin D1. […]
24–48 hours after transfection, the luciferase reporter assay was performed according to the manufacturer's directions (Promega, cat. no. E4030) and measured in a Victor 1420 Multilabel Counter. […]

T2 sequence (P25322 whole entry partner, one chain of several): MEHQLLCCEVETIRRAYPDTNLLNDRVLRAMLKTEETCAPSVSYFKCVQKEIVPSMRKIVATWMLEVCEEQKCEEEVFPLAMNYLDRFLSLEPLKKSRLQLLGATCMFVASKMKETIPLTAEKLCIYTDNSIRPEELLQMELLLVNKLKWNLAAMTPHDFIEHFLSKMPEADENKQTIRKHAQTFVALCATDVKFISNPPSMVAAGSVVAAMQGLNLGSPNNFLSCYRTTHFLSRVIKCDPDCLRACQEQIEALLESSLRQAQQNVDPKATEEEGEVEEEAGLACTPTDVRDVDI

Row | inhibition of CDK4-dependent phosphorylation of RB (GST-RB) in vitro (CDK4 and cyclin D1) | binding to CDK4 (CDK4 [1]) | vp16 CDK4-dependent luciferase reporter activity (CDK4 [3]) | Molecule | growth inhibitory activity (BrdU positive cells) (10T1/2 cells) | growth inhibitory effect when the peptide further includes nuclear localization signal (NLS) (10T1/2 cells; data not shown) | CDK4 kinase activity and cell growth when expressed in cell nuclei (C2C12 myoblasts) | phosphorylation of serines 780 and 795 on cotransfected RB target protein [2]
1 | no inhibitory effect | does not bind to CDK4 | – | Myogenin: chicken myogenic factor that does not bind CDK4, used as the control (protein, UniProt P17920 1-227, looked up, gal4 fusion) Myogenin: MELFETNPYFFPEQRFYDGENFLGSRLQGYEAAAFPERPEVTLCPESRGALEEKDSTLPEHCPGQCLPWACKICKRKTVSIDRRRAATLREKRRLKKVNEAFEALKRSTLLNPNQRLPKVEILRSAIQYIERLQSLLSSLNQQEREQRELRYRPAAPQPAAPSECGSGSSSCSPEWSTQLEFGTNPADHLLSDDQAEDRNLHSLSSIVESIAVEDVAVTFPEERVQN | – | – | – | –
2 | inhibit | binds specifically | four-fold increase | full-length MyoD(CMD1): full-sized chicken MyoD (CMD1), muscle specific bHLH transcription factor; used as GST, his-tag or gal4 constructs (protein, UniProt P16075 1-298, looked up, full-length GST, His or gal4 tagged, full-sized chicken MyoD (CMD1), muscle specific bHLH transcription factor; used as GST, his-tag or gal4 constructs) MDLLGPMEMTEGSLCSFTAADDFYDDPCFNTSDMHFFEDLDPRLVHVGGLLKPEEHPHTRAPPREPTEEEHVRAPSGHHQAGRCLLWACKACKRKTTNADRRKAATMRERRRLSKVNEAFETLKRCTSTNPNQRLPKVEILRNAIRYIESLQALLREQEDAYYPVLEHYSGESDASSPRSNCSDGMMEYSGPPCSSRRRNSYDSSYYTESPNDPKHGKSSVVSSLDCLSSIVERISTDNSTCPILPPAEAVAEGSPCSPQEGGNLSDSGAQIPSPTNCTPLPQESSSSSSSNPIYQVL | showed growth inhibitory activity | – | – | reduced the phosphorylation of serines 780 and 795
3 | inhibit | CDK4 bound | – | C-terminus of MyoD(CMD1): amino acids 153–298 of CMD1 (protein, UniProt P16075 153-298, looked up, fragment) ALLREQEDAYYPVLEHYSGESDASSPRSNCSDGMMEYSGPPCSSRRRNSYDSSYYTESPNDPKHGKSSVVSSLDCLSSIVERISTDNSTCPILPPAEAVAEGSPCSPQEGGNLSDSGAQIPSPTNCTPLPQESSSSSSSNPIYQVL | – | – | – | reduced the phosphorylation of serines 780 and 795

Row | Molecule | inhibition of CDK4-dependent phosphorylation of RB (GST-RB) in vitro (CDK4 and cyclin D1) | binding to CDK4 (CDK4 [1]) | vp16 CDK4-dependent luciferase reporter activity (CDK4 [3]) | growth inhibitory activity (BrdU positive cells) (10T1/2 cells) | growth inhibitory effect when the peptide further includes nuclear localization signal (NLS) (10T1/2 cells; data not shown) | CDK4 kinase activity and cell growth when expressed in cell nuclei (C2C12 myoblasts) | phosphorylation of serines 780 and 795 on cotransfected RB target protein [2]
4 | fifteen amino acid CDK4-binding peptide: amino acids 189–203 of chicken MyoD (CMD1), SEQ ID NO: 1; tested as GST fusion, with NLS in cells | inhibit | bound CDK4 as efficiently as full-sized MyoD (CMD1) | – | as potent as full-sized MyoD(CMD1) in growth inhibitory activity | enhanced | inhibits CDK4 kinase activity and cell growth | –
5 | bHLH domain of MyoD(CMD1): amino acids 93–153 of CMD1 (protein, UniProt P16075 93-153, looked up, fragment) KRKTTNADRRKAATMRERRRLSKVNEAFETLKRCTSTNPNQRLPKVEILRNAIRYIESLQA | neither the N-terminus (amino acids 1–92) nor the bHLH domain of MyoD(CMD1) inhibited CDK4 activity | – | – | effective at inhibiting cell growth | – | – | –
6 | N-terminus (amino acids 1–92): amino acids 1–92 of CMD1 (protein, UniProt P16075 1-92, looked up, fragment) MDLLGPMEMTEGSLCSFTAADDFYDDPCFNTSDMHFFEDLDPRLVHVGGLLKPEEHPHTRAPPREPTEEEHVRAPSGHHQAGRCLLWACKAC | neither the N-terminus (amino acids 1–92) nor the bHLH domain of MyoD(CMD1) inhibited CDK4 activity | – | – | ineffective in growth inhibition | – | – | –
